The supplement of paper PMC11316812
± gives the standard deviation of the averaged measurements.

Experiments:
hTERT-HMEC = experiment: percentage of EdU-negative (G0-arrested) nuclei per well, 72 h; higher = more G0 arrest; conditions: reference: sequence is the full UniProt precursor, the tested protein was the secreted form or ectodomain
MCF7 = experiment: as above; conditions: reference: sequence is the full UniProt precursor, the tested protein was the secreted form or ectodomain
[1] = protein concentration 0.01625 µM
[2] = protein concentration 0.1625 µM
[3] = protein concentration 0.0225 µM
[4] = protein concentration 0.03092 µM
[5] = protein concentration 0.3092 µM
[6] = protein concentration 0.01025 µM
[7] = protein concentration 0.1025 µM
[8] = protein concentration 0.0257143 µM
[9] = protein concentration 0.257143 µM
[10] = protein concentration 0.0107825 µM
[11] = protein concentration 0.107825 µM
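Further: secreted proteins added to cultured cells, EdU pulse at the end, nuclei found by Hoechst imaging, EdU status from nuclear versus surrounding ring intensity ratio, PBS as neutral control.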

Sequence | percentage of EdU-negative (hTERT-HMEC; [3]) | percentage of EdU-negative (hTERT-HMEC; protein concentration 0.225 µM) | percentage of EdU-negative (MCF7; [3]) | percentage of EdU-negative (MCF7; protein concentration 0.225 µM) | also measured
MEVTCLLLLALIPFHCRGQGVYAPAQAQIVHAGQACVVKEDNISERVYTIREGDTLMLQCLVTGHPRPQVRWTKTAGSASDKFQETSVFNETLRIERIARTQGGRYYCKAENGVGVPAIKSIRVDVQYLDEPMLTVHQTVSDVRGNFYQEKTVFLRCTVNSNPPARFIWKRGSDTLSHSQDNGVDIYEPLYTQGETKVLKLKNLRPQDYASYTCQVSVRNVCGIPDKAITFRLTNTTAPPALKLSVNETLVVNPGENVTVQCLLTGGDPLPQLQWSHGPGPLPLGALAQGGTLSIPSVQARDSGYYNCTATNNVGNPAKKTVNLLVRSMKNATFQITPDVIKESENIQLGQDLKLSCHVDAVPQEKVTYQWFKNGKPARMSKRLLVTRNDPELPAVTSSLELIDLHFSDYGTYLCMASFPGAPVPDLSVEVNISSETVPPTISVPKGRAVVTVREGSPAELQCEVRGKPRPPVLWSRVDKEAALLPSGLPLEETPDGKLRLERVSRDMSGTYRCQTARYNGFNVRPREAQVQLNVQFPPEVEPSSQDVRQALGRPVLLRCSLLRGSPQRIASAVWRFKGQLLPPPPVVPAAAEAPDHAELRLDAVTRDSSGSYECSVSNDVGSAACLFQVSAKAYSPEFYFDTPNPTRSHKLSKNYSYVLQWTQREPDAVDPVLNYRLSIRQLNQHNAVVKAIPVRRVEKGQLLEYILTDLRVPHSYEVRLTPYTTFGAGDMASRIIHYTEPINSPNLSDNTCHFEDEKICGYTQDLTDNFDWTRQNALTQNPKRSPNTGPPTDISGTPEGYYMFIETSRPRELGDRARLVSPLYNASAKFYCVSFFYHMYGKHIGSLNLLVRSRNKGALDTHAWSLSGNKGNVWQQAHVPISPSGPFQIIFEGVRGPGYLGDIAIDDVTLKKGECPRKQTDPNKVVVMPGSGAPCQSSPQLWGPMAIFLLALQR [Q8NFP4] |  |  |  |  | percentage of EdU-negative (hTERT-HMEC; [1]): 4.84 ± 1.1%; percentage of EdU-negative (hTERT-HMEC; [2]): 5.63 ± 0.16%; percentage of EdU-negative (MCF7; [1]): 25.1 ± 2%; percentage of EdU-negative (MCF7; [2]): 26.2 ± 1.5%
MGRRDAQLLAALLVLGLCALAGSEKPSPCQCSRLSPHNRTNCGFPGITSDQCFDNGCCFDSSVTGVPWCFHPLPKQESDQCVMEVSDRRNCGYPGISPEECASRKCCFSNFIFEVPWCFFPKSVEDCHY | 5.31 ± 1.5% | 5.92 ± 0.79% | 23 ± 1.6% | 24.8 ± 1.3% | 
MALSWVLTVLSLLPLLEAQIPLCANLVPVPITNATLDRITGKWFYIASAFRNEEYNKSVQEIQATFFYFTPNKTEDTIFLREYQTRQNQCFYNSSYLNVQRENGTVSRYEGGREHVAHLLFLRDTKTLMFGSYLDDEKNWGLSFYADKPETTKEQLGEFYEALDCLCIPRSDVMYTDWKKDKCEPLEKQHEKERKQEEGES | 4.9 ± 0.092% | 5.06 ± 0.15% | 25.4 ± 2.9% | 25.1 ± 3.5% | 
MHSFPPLLLLLFWGVVSHSFPATLETQEQDVDLVQKYLEKYYNLKNDGRQVEKRRNSGPVVEKLKQMQEFFGLKVTGKPDAETLKVMKQPRCGVPDVAQFVLTEGNPRWEQTHLTYRIENYTPDLPRADVDHAIEKAFQLWSNVTPLTFTKVSEGQADIMISFVRGDHRDNSPFDGPGGNLAHAFQPGPGIGGDAHFDEDERWTNNFREYNLHRVAAHELGHSLGLSHSTDIGALMYPSYTFSGDVQLAQDDIDGIQAIYGRSQNPVQPIGPQTPKACDSKLTFDAITTIRGEVMFFKDRFYMRTNPFYPEVELNFISVFWPQLPNGLEAAYEFADRDEVRFFKGNKYWAVQGQNVLHGYPKDIYSSFGFPRTVKHIDAALSEENTGKTYFFVANKYWRYDEYKRSMDPGYPKMIAHDFPGIGHKVDAVFMKDGFFYFFHGTRQYKFDPKTKRILTLQKANSWFNCRKN |  |  |  |  | percentage of EdU-negative (hTERT-HMEC; [4]): 4.22 ± 0.79%; percentage of EdU-negative (hTERT-HMEC; [5]): 6.403 ± 0.048%; percentage of EdU-negative (MCF7; [4]): 24.3 ± 3.2%; percentage of EdU-negative (MCF7; [5]): 26.43 ± 0.08%
MLLEPGRGCCALAILLAIVDIQSGGCINITSSASQEGTRLNLICTVWHKKEEAEGFVVFLCKDRSGDCSPETSLKQLRLKRDPGIDGVGEISSQLMFTISQVTPLHSGTYQCCARSQKSGIRLQGHFFSILFTETGNYTVTGLKQRQHLEFSHNEGTLSSGFLQEKVWVMLVTSLVALQAL | 4.71 ± 0.094% | 5.62 ± 0.37% | 24.09 ± 0.069% | 28.4 ± 2.2% | 
MAGGRETCLPLIGFILICLKMVASAKSAPEIPTIDQAYSKLSNSITVEWATVPGATSYLLTAEDGDTVIETTVANSPGTVTGLKAATWYEITIRSISAAGRSQASPPKQAKTVLAAPILEVSSPSSDSILVQWEAVYMAIAFSVSIMRANGLGSIWKENTTNTSLTFTSLEAGTLYTIKAYAWNANRIPGDDSTCNQRTSPRAPANIQVSFDSGALKASFSWARAEGAFNYTVMALSDSSELTCSTTFSSCTISSLQCGTEYLISVLASNDAGSSKSSSAMTLKTVACAPGRVTIQEDPPGHLSVAWSSVDLGDYYVVFVKSDDGLEVHCNTSLTQCNFLSECGFTYFISVFVYNKAGQSPLGDIFNYTTAPCCPSDINPVLVSSDRVEIVWSPVRGAELYETKAVDGYNMVECNDTTPACTLSALECDTKYNITVYSFNEVRGSNMSCTPQFITTAPCSPEIKNVSRDAFSMINVHWRSTNDDATYTVTAQGEKGLYQCSSTGESCTMRGLPCGSVFSVTAVAETQAGRSLPSYSVPLETVPCCPTGLTVTQITQSVINVSWTIGRVAQTHVAVLESHTGQSKCHTHQNHCLLGCITCGINYTVTLKAISATGLTADCSYQSYFSGACCPLGVKLYRLGPNGIRIYWQASRGSANYSTDLYGSKGIFTCTPSAGLSFCDVTEIPCGDVYTVMVSPVAKTGLKLTFCPKKIYSVTCSGSTLGMVIYRGKRNEE [Q5VTL7] |  |  |  |  | percentage of EdU-negative (hTERT-HMEC; [6]): 4.97 ± 0.23%; percentage of EdU-negative (hTERT-HMEC; [7]): 35.6 ± 3.5%; percentage of EdU-negative (MCF7; [6]): 25.3 ± 0.94%; percentage of EdU-negative (MCF7; [7]): 35.5 ± 1%
MYRHGISSQRSWPLWTTIFIFLGVAAILGVTIGLLVHFLAVEKTYYYQGDFHISGVTYNDNCENAASQASTNLSKDIETKMLNAFQNSSIYKEYVKSEVIKLLPNANGSNVQLQLKFKFPPAEGVSMRTKIKAKLHQMLKNNMASWNAVPASIKLMEISKAASEMLTNNCCGRQVANSIITGNKIVNGKSSLEGAWPWQASMQWKGRHYCGASLISSRWLLSAAHCFAKKNNSKDWTVNFGIVVNKPYMTRKVQNIIFHENYSSPGLHDDIALVQLAEEVSFTEYIRKICLPEAKMKLSENDNVVVTGWGTLYMNGSFPVILQEDFLKIIDNKICNASYAYSGFVTDTMLCAGFMSGEADACQNDSGGPLAYPDSRNIWHLVGIVSWGDGCGKKNKPGVYTRVTSYRNWITSKTGL [Q86T26] |  |  |  |  | percentage of EdU-negative (hTERT-HMEC; [8]): 5.22 ± 1.8%; percentage of EdU-negative (hTERT-HMEC; [9]): 5.69 ± 1%; percentage of EdU-negative (MCF7; [8]): 23.6 ± 1.4%; percentage of EdU-negative (MCF7; [9]): 25.2 ± 1.9%
MGALRPTLLPPSLPLLLLLMLGMGCWAREVLVPEGPLYRVAGTAVSISCNVTGYEGPAQQNFEWFLYRPEAPDTALGIVSTKDTQFSYAVFKSRVVAGEVQVQRLQGDAVVLKIARLQAQDAGIYECHTPSTDTRYLGSYSGKVELRVLPDVLQVSAAPPGPRGRQAPTSPPRMTVHEGQELALGCLARTSTQKHTHLAVSFGRSVPEAPVGRSTLQEVVGIRSDLAVEAGAPYAERLAAGELRLGKEGTDRYRMVVGGAQAGDAGTYHCTAAEWIQDPDGSWAQIAEKRAVLAHVDVQTLSSQLAVTVGPGERRIGPGEPLELLCNVSGALPPAGRHAAYSVGWEMAPAGAPGPGRLVAQLDTEGVGSLGPGYEGRHIAMEKVASRTYRLRLEAARPGDAGTYRCLAKAYVRGSGTRLREAASARSRPLPVHVREEGVVLEAVAWLAGGTVYRGETASLLCNISVRGGPPGLRLAASWWVERPEDGELSSVPAQLVGGVGQDGVAELGVRPGGGPVSVELVGPRSHRLRLHSLGPEDEGVYHCAPSAWVQHADYSWYQAGSARSGPVTVYPYMHALDTLFVPLLVGTGVALVTGATVLGTITCCFMKRLRKR [Q969P0] | 5.09 ± 0.17% | 5.05 ± 0.19% | 25 ± 1.3% | 26.5 ± 0.91% | 
MTILFLTMVISYFGCMKAAPMKEANIRGQGGLAYPGVRTHGTLESVNGPKAGSRGLTSLADTFEHVIEELLDEDQKVRPNEENNKDADLYTSRVMLSSQVPLEPPLLFLLEEYKNYLDAANMSMRVRRHSDPARRGELSVCDSISEWVTAADKKTAVDMSGGTVTVLEKVPVSKGQLKQYFYETKCNPMGYTKEGCRGIDKRHWNSQCRTTQSYVRALTMDSKKRIGWRFIRIDTSCVCTLTIKRGR |  |  |  |  | percentage of EdU-negative (hTERT-HMEC; [10]): 5.167 ± 0.044%; percentage of EdU-negative (hTERT-HMEC; [11]): 7.06 ± 0.31%; percentage of EdU-negative (MCF7; [10]): 26.6 ± 0.45%; percentage of EdU-negative (MCF7; [11]): 28.7 ± 1.2%
MKSFLLVVNALALTLPFLAVEVQNQKQPACHENDERPFYQKTAPYVPMYYVPNSYPYYGTNLYQRRPAIAINNPYVPRTYYANPAVVRPHAQIPQRQYLPNSHPPTVVRRPNLHPSFIAIPPKKIQDKIIIPTINTIATVEPTPAPATEPTVDSVVTPEAFSESIITSTPETTTVAVTPPTA |  |  |  |  | percentage of EdU-negative (hTERT-HMEC; protein concentration 0.01 µM): 5.78 ± 0.51%; percentage of EdU-negative (hTERT-HMEC; protein concentration 0.1 µM): 5.65 ± 0.83%; percentage of EdU-negative (MCF7; protein concentration 0.01 µM): 24.6 ± 1.5%; percentage of EdU-negative (MCF7; protein concentration 0.1 µM): 25.6 ± 1.9%
MRAPHLHLSAASGARALAKLLPLLMAQLWAAEAALLPQNDTRLDPEAYGSPCARGSQPWQVSLFNGLSFHCAGVLVDQSWVLTAAHCGNKPLWARVGDDHLLLLQGEQLRRTTRSVVHPKYHQGSGPILPRRTDEHDLMLLKLARPVVLGPRVRALQLPYRCAQPGDQCQVAGWGTTAARRVKYNKGLTCSSITILSPKECEVFYPGVVTNNMICAGLDRGQDPCQSDSGGPLVCDETLQGILSWGVYPCGSAQHPAVYTQICKYMSWINKVIRSN | 3.89 ± 0.14% | 6.32 ± 0.7% | 26.7 ± 0.38% | 26.9 ± 1.7% | 
MIIVAHVLLILLGATEILQADLLPDEKISLLPPVNFTIKVTGLAQVLLQWKPNPDQEQRNVNLEYQVKINAPKEDDYETRITESKCVTILHKGFSASVRTILQNDHSLLASSWASAELHAPPGSPGTSIVNLTCTTNTTEDNYSRLRSYQVSLHCTWLVGTDAPEDTQYFLYYRYGSWTEECQEYSKDTLGRNIACWFPRTFILSKGRDWLAVLVNGSSKHSAIRPFDQLFALHAIDQINPPLNVTAEIEGTRLSIQWEKPVSAFPIHCFDYEVKIHNTRNGYLQIEKLMTNAFISIIDDLSKYDVQVRAAVSSMCREAGLWSEWSQPIYVGNDEHKPLREWFVIVIMATICFILLILSLICKICHLWIKLFPPIPAPKSNIKDLFVTTNYEKAGSSETEIEVICYIEKPGVETLEDSVF | 4.86 ± 0.92% | 5.18 ± 0.52% | 25.4 ± 1.1% | 25.9 ± 1.3% | 
MVSRMVSTMLSGLLFWLASGWTPAFAYSPRTPDRVSEADIQRLLHGVMEQLGIARPRVEYPAHQAMNLVGPQSIEGGAHEGLQHLGPFGNIPNIVAELTGDNIPKDFSEDQGYPDPPNPCPVGKTADDGCLENTPDTAEFSREFQLHQHLFDPEHDYPGLGKWNKKLLYEKMKGGERRKRRSVNPYLQGQRLDNVVAKKSVPHFSDEDKDPE | 5.414 ± 0.019% | 5.28 ± 0.35% | 26.6 ± 1.8% | 25.7 ± 2.2% | 
